Test results from publication PMC6521584, “Sucrose 6^F-phosphate phosphorylase: a novel insight in the human gut microbiome” (Microbial Genomics, 2019).

System: O=P(O)(O)OC[C@H]1O[C@@](CO)(O[C@H]2O[C@H](CO)[C@@H](O)[C@H](O)[C@H]2O)[C@@H](O)[C@@H]1O
Experiment: purified protein
Type: biochemical, Mediterraneibacter gnavus
Conditions: phosphorolysis, 100 mM sodium phosphate buffer as co-substrate, pH 6.0, 40 °C, 1.0-20 mM substrate

## RgSPP (sucrose 6^F-phosphate phosphorylase; formerly SucP) (Mediterraneibacter gnavus)
  Km: 1700 µM
  kcat: 740 s⁻¹
  kcat/Km: 435000 M⁻¹ s⁻¹
